The text below walks through data of publication PMC12823420.

In series [1] the target is UAP56-UCM-1 fusion (Homo sapiens, UniProt Q13838 1-428+P82979:82-115, internal_change). Description: GCI; 1 mM ATP; RNA immobilized; GCI: 25 mM HEPES pH 7.9, 50 mM KCl, 1 mM MgCl2, 1 mM TCEP, 1 mM ATP, 25 C; AdML pull-down: 20 mM HEPES pH 7.9, 100 mM KCl, 2 mM MgCl2, 5% glycerol, 0.1% Igepal, 1 mM AMP-PNP, RT; unclamping: same with 40 mM KCl, 500 mM KCl washes. The following applies: protein: recombinant; tags: 10xHis; otherwise unlabelled; single strand.

Series [2] addresses UAP56 (Homo sapiens, UniProt Q13838 1-428). Described as above. The settings on record: protein: recombinant; otherwise unlabelled; single strand.

B1: 15U RNA (ssRNA)
RNA: UUUUUUUUUUUUUUU
In general, Kd refers to the equilibrium constant for the complex coming apart. With B1, the results for the Kd in series [1] and in series [2] were 270 ± 60 nM and 780 ± 90 nM, respectively.
